Paper PMC3237451, “Missense Mutation in the Second RNA Binding Domain Reveals a Role for Prkra (PACT/RAX) during Skull Development”

Molecular target: T1, His-RAX WT (PACT) (Mus musculus (cDNA from L929 cells), UniProt Q9WTX2 1-313)
T1 sequence: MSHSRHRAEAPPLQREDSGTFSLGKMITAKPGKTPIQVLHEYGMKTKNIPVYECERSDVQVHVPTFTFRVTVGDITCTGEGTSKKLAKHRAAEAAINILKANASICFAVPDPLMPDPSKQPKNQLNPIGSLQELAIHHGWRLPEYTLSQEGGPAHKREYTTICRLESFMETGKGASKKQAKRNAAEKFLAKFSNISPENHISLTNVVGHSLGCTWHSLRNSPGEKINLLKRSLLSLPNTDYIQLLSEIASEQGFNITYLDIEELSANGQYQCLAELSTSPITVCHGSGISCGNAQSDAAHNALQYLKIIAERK
Assay: EMSA; 1 uM His-RAX; 25 fmol probe; competed by poly(I:C); 20 mM Tris pH 7.5, 50 mM KCl, 2 mM MgCl2, 2 mM MnCl2, 5% glycerol; EMSA 15 min at room temperature, 5% acrylamide gel in 0.25x TBE run cold
Details: protein: recombinant; blunt

B1: 30-bp dsRNA probe (dsRNA)
RNA 1: GGGAACAAAAGCUGGGUACCGGGCCCCCCC
RNA 2: GGGGGGGCCCGGUACCCAGCUUUUGUUCCC
B1: binds.
